Source: patent publication US20220289837A1 (VIB VZW, published 2022)

Target: T1, 2PT-NBD1 (human CFTR nucleotide-binding domain 1, residues 387-646, with S492P, A534P, I539T) (human, UniProt P13569 388-646, biotinylated for the ELISA (sites not given))
T1 construct: N-terminal His6-SUMO tag removed with Ulp1; In the T2a-T4 and T27 crystals the domain was cut by papain or subtilisin
Experiment: ELISA, biotinylated 2PT-NBD1 on avidin-coated plate, T2a titrated
From the text: The location of these nanobodies completely overlaps (FIG. 11a) with that of the C-terminal regulatory extension (RE) observed in previously published structures of NBD1^{[25,26].} The RE segment, comprising residues 654-673 was removed from the 2PT-NBD1 construct used for immunization and characterization. While the functional role of the RE is still unclear, it has been described to be a very mobile domain^{[27]}. […] This is consistent with RE being a dynamic region of CFTR.
For dose-response assays, Nunc MaxiSorp 96-well plates (ThermoScientific), were coated with 5 μg/ml NeutrAvidin Biotin-Binding protein (ThermoScientific) overnight at 4° C. and blocked 2 h at room temperature (RT) with 2% milk in phosphate-buffered saline (PBS). Each new reagent addition was preceded by three washes with 200 μl of NBD1 buffer (20 mM HEPES pH 7.5, 150 mM NaCl, and 10% (w/v) glycerol, 10% (w/v) ethylene glycol, 2 mM ATP, 3 mM MgCl₂). Then, biotinylated purified NBD1 proteins at 5 μg/ml were immobilized 30 min at RT followed by 1 h RT incubation with 100 μl various concentrations (0-20 μg/ml) of purified nanobodies. […] 50 μl of 1-Step UltraTMB-ELISA (ThermoScientific) was used as a substrate for the peroxidase and intensity of the reaction was proportional to absorbance measured at 450 nm with SynergyMx (BioTek) after addition of 50 μl H₂SO₄ at 1M.

T1 sequence (P13569 388-646 V470M/S492P/A534P/I539T limits assumed): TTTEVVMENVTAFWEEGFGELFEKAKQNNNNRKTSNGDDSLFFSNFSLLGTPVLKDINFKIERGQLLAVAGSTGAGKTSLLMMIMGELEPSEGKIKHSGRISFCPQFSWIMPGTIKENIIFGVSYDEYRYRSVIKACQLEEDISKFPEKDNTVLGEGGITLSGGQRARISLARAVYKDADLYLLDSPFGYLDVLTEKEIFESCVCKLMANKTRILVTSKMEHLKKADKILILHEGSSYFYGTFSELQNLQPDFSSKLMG

- EC50 (read off the curve): ~7 nM
B1: Nanobody T2a (VHH, not shown: small tags and cut ends)
VHH: QVQLQESGGGLVQAGGSLRLSCAASGSIFRIDAMGWYRQAPGKQRELVAHSTSGGSTDYADSVKGRFTISRDNAKNTVYLQMNSLKPEDTAVYYCNADVRTRWYASNNYWGQGTQVTVSS
notes: Llama nanobody; also called Nb T2a; T2a Nb
